The target in assay [1] is Lipoprotein lipase (LPL) (mouse) (UniProt P11152). Put plainly: cell-based or functional assay.
The next assay has as its target T1, LPL (Homo sapiens, UniProt P06858).
T1 sequence (P06858 28-475): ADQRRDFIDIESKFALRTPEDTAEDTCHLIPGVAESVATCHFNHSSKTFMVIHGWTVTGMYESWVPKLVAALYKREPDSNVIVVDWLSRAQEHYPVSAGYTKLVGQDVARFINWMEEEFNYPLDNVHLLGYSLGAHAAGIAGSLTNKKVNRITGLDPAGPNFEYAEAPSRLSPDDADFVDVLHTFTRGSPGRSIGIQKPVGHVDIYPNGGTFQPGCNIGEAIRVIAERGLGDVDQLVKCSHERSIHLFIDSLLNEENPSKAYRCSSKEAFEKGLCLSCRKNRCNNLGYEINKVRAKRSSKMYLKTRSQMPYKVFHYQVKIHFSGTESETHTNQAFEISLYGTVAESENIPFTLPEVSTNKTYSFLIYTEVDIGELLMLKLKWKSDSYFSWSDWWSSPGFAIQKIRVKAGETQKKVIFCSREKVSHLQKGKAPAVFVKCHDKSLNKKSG
The following applies: in vitro; read-out: IC50 for inhibition of LPL; cited from earlier work.

Lipoprotein lipase (LPL) (mouse), sequence (P11152 28-474 limits assumed): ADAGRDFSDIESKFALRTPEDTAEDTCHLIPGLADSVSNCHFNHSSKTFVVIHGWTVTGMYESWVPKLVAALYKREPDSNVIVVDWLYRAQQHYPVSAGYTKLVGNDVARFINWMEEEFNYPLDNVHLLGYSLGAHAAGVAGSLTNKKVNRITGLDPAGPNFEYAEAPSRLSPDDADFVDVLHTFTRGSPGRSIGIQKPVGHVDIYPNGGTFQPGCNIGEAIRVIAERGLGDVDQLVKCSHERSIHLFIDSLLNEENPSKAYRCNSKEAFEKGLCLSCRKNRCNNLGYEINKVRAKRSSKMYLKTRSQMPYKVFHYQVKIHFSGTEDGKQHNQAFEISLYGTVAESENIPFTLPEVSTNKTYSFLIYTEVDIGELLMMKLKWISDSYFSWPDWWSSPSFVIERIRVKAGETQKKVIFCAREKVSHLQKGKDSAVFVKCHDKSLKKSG

Molecule “Fasting-induced adipose factor (Fiaf) (from UniProt Q9Z1P8 24-410)” had an epididymal fat pad LPL activity, GF Fiaf-/- mice versus GF littermates containing the wild-type Fiaf allele in assay [1] of 67 % higher.

B1: Fiaf: secreted protein, a potent inhibitor of LPL in vitro (protein)
chain: QGRPAQPEPPRFASWDEMNLLAHGLLQLGHGLREHVERTRGQLGALERRMAACGNACQGPKGKDAPFKDSEDRVPEGQTPETLQSLQTQLKAQNSKIQQLFQKVAQQQRYLSKQNLRIQNLQSQIDLLAPTHLDNGVDKTSRGKRLPKMTQLIGLTPNATHLHRPPRDCQELFQEGERHSGLFQIQPLGSPPFLVNCEMTSDGGWTVIQRRLNGSVDFNQSWEAYKDGFGDPQGEFWLGLEKMHSITGNRGSQLAVQLQDWDGNAKLLQFPIHLGGEDTAYSLQLTEPTANELGATNVSPNGLSLPFSTWDQDHDLRGDLNCAKSLSGGWWFGTCSHSNLNGQYFHSIPRQRQERKKGIFWKTWKGRYYPLQATTLLIQPMEATAAS
As a reminder, the IC50 is the point on the concentration scale where inhibition reaches its midpoint. Take B1: in the assay with LPL, the concentration for half-maximal inhibition (IC50) was 200 nM.

Source of the values: patent US20050239706A1, “Modulation of fiaf and the gastrointestinal microbiota as a means to control energy storage in a subject” (Washington University in St. Louis, priority 2003, published 2005).
